Source: article PMC11659164, “Inceptor binds to and directs insulin towards lysosomal degradation in β cells” (Nature Metabolism, 2024)
Values belong to the molecule of their own block, whether it stands above or below them.

Tests used:
[1] = target: His-tagged inceptor ectodomain (human) (UniProt Q6UXG2); test: native MS; charge detection mass spectrometry (CDMS), Orbitrap Q Exactive UHMR; inceptor ECD-His (5 µM) alone or with insulin at 1:6 and 1:20, or with proinsulin; 150 mM ammonium acetate, pH 3–7; 37 °C for 30 min
[2] = target: inceptor–HaloTag fusion protein (FRET experiments, INS-1E cells) (human) (UniProt Q6UXG2); test: FRET or BRET; live INS-1E cells overexpressing inceptor–HaloTag labelled with TMR; 100 nmol/l INS-630 and 0, 10, 100 and 1,000 nmol/l proinsulin in the medium for 40 min; corrected FRET efficiency by confocal imaging
[3] = target: the molecule itself; test: native MS; charge detection mass spectrometry (CDMS), Orbitrap Q Exactive UHMR; inceptor ECD-His (5 µM) alone or with insulin at 1:6 and 1:20, or with proinsulin; 150 mM ammonium acetate, pH 3–7; 37 °C for 30 min

N for each inceptor dimer [1]: 1
stoichiometry N [1]: 1
Molecule: bovine proinsulin (ligand)

reduction of the FRET signal of inceptor to INS-630 at a 1:10 molar ratio of proinsulin to insulin [2]: 50%
Molecule: proinsulin (unlabelled, added to the medium in the FRET experiments) (ligand)

B1: His-tagged inceptor ectodomain (domain or fragment, human, UniProt Q6UXG2 42-910, looked up)
chain: TGPELHACKESEYHYEYTACDSTGSRWRVAVPHTPGLCTSLPDPIKGTECSFSCNAGEFLDMKDQSCKPCAEGRYSLGTGIRFDEWDELPHGFASLSANMELDDSAAESTGNCTSSKWVPRGDYIASNTDECTATLMYAVNLKQSGTVNFEYYYPDSSIIFEFFVQNDQCQPNADDSRWMKTTEKGWEFHSVELNRGNNVLYWRTTAFSVWTKVPKPVLVRNIAITGVAYTSECFPCKPGTYADKQGSSFCKLCPANSYSNKGETSCHQCDPDKYSEKGSSSCNVRPACTDKDYFYTHTACDANGETQLMYKWAKPKICSEDLEGAVKLPASGVKTHCPPCNPGFFKTNNSTCQPCPYGSYSNGSDCTRCPAGTEPAVGFEYKWWNTLPTNMETTVLSGINFEYKGMTGWEVAGDHIYTAAGASDNDFMILTLVVPGFRPPQSVMADTENKEVARITFVFETLCSVNCELYFMVGVNSRTNTPVETWKGSKGKQSYTYIIEENTTTSFTWAFQRTTFHEASRKYTNDVAKIYSINVTNVMNGVASYCRPCALEASDVGSSCTSCPAGYYIDRDSGTCHSCPTNTILKAHQPYGVQACVPCGPGTKNNKIHSLCYNDCTFSRNTPTRTFNYNFSALANTVTLAGGPSFTSKGLKYFHHFTLSLCGNQGRKMSVCTDNVTDLRIPEGESGFSKSITAYVCQAVIIPPEVTGYKAGVSSQPVSLADRLIGVTTDMTLDGITSPAELFHLESLGIPDVIFFYRSNDVTQSCSSGRSTTIRVRCSPQKTVPGSLLLPGTCSDGTCDGCNFHFLWESAAACPLCSVADYHAIVSSCVAGIQKTTYVWREPKLCSGGISLPEQRVTICKTIDFWLK
notes: signal peptide in the construct; ectodomain of human inceptor (KIAA1324), Uniprot entry Q6UXG2, residues 1–910; Seen as monomer and, prevalently, as dimer by CDMS; also called inceptor ECD-His; inceptor ECD-6×His; source: HEK293 (pCDNA3-inceptor ECD-6×His), purified
stoichiometry N [3]: 2
